The assay has as its target human carcinoembryonic antigen (CEA) on MC-38-CEA-2 cells (human) (UniProt P06731). The assay is described as follows: FACS analysis of MC-38-CEA-2 tumor cells. (A flow cytometer gives signals particle by particle.)
Chain of UniProt P06731 (P06731 35-702): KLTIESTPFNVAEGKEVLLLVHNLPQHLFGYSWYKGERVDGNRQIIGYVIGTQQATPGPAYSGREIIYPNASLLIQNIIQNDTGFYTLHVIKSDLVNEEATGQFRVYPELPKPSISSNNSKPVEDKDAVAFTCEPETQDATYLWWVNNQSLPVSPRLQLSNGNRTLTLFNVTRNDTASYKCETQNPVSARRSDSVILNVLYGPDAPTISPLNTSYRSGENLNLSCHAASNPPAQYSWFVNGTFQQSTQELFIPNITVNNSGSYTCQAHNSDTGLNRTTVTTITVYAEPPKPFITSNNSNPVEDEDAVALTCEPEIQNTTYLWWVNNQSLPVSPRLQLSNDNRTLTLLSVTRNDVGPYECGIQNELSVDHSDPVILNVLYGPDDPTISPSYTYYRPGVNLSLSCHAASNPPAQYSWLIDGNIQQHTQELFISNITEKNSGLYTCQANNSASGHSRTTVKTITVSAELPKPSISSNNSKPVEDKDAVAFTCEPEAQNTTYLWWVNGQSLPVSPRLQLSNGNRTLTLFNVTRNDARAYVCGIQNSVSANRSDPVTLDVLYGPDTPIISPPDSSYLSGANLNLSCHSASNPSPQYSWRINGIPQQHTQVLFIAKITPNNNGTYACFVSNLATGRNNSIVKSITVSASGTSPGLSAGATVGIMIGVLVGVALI

In turn, “murine IgG2a anti-CEA MAb, COL-1 (antibody)” came in with a percent of cells positive (COL-1 binding) (% of the cells) above 85.
